# Data taken from patent US20200330588A1.
# Assays:
# Assay in all cases: flow cytometry, HEK293 cells transfected with gH alanine mutant and gL; % of gH-positive cells compared to WT
# [1] = biological target: gH alanine mutant 490-491 transfected into HEK293 cells with gL (Human cytomegalovirus (consensus sequence; strain of the construct not stated); Human cytomegalovirus)
# [2] = biological target: gH alanine mutant 482-483 transfected into HEK293 cells with gL (Human cytomegalovirus (consensus sequence; strain of the construct not stated); Human cytomegalovirus)
# [3] = biological target: gH alanine mutant 486-487 transfected into HEK293 cells with gL (Human cytomegalovirus (consensus sequence; strain of the construct not stated); Human cytomegalovirus)
# [4] = biological target: gH alanine mutant 480-481 transfected into HEK293 cells with gL (Human cytomegalovirus (consensus sequence; strain of the construct not stated); Human cytomegalovirus)
# [5] = biological target: gH alanine mutant 488-489 transfected into HEK293 cells with gL (Human cytomegalovirus (consensus sequence; strain of the construct not stated); Human cytomegalovirus)
# [6] = biological target: gH mutant 485-492 (consecutive alanine substitutions) transfected into HEK293 cells with gL (Human cytomegalovirus (consensus sequence; strain of the construct not stated); Human cytomegalovirus)
# [7] = biological target: gH alanine mutant 478-488 (label as in Table 6)
# [8] = biological target: gH mutant 480-486 (consecutive alanine substitutions) transfected into HEK293 cells with gL (Human cytomegalovirus (consensus sequence; strain of the construct not stated); Human cytomegalovirus)
# [9] = biological target: gH alanine mutant 484-485 transfected into HEK293 cells with gL (Human cytomegalovirus (consensus sequence; strain of the construct not stated); Human cytomegalovirus)
substance,measurement,setting,value
human anti-gH monoclonal antibody MSL-109,Avg. binding (% of mass),[1],89%
same,Avg. binding (% of mass),[2],92%
same,Avg. binding (% of mass),[3],66%
same,Avg. binding (% of mass),[4],87%
same,Avg. binding (% of mass),[5],111%
same,Avg. binding (% of mass),[6],65%
same,Avg. binding (% of mass),[7],100%
same,Avg. binding (% of mass),[8],66%
same,Avg. binding (% of mass),[9],86%
